Assay results: article PMC4974071

T1: BCL11A-L (long isoform of BCL11A), wild-type, Q9H165-2
T1 chain: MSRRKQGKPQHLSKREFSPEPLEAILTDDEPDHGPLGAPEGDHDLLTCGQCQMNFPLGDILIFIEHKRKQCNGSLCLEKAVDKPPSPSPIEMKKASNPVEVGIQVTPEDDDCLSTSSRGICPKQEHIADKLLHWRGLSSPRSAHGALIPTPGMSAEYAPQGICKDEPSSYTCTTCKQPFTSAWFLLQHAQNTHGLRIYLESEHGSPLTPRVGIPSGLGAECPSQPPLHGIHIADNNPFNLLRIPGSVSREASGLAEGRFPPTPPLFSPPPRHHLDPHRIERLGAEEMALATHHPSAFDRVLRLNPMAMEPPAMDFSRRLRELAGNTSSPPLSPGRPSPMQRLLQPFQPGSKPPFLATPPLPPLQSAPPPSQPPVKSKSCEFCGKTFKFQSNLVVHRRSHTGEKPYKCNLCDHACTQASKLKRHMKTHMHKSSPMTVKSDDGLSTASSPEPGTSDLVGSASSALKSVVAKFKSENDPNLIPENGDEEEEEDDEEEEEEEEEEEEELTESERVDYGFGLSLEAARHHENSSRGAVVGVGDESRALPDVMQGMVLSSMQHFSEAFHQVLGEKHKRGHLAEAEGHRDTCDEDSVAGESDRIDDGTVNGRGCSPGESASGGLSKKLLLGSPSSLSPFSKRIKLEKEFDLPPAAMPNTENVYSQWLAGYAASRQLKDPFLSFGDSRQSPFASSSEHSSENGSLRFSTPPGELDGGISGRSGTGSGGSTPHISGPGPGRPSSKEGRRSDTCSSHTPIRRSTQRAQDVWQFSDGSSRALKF

T2: BCL11A-S (short isoform of BCL11A), wild-type, Q9H165-3
T2 chain: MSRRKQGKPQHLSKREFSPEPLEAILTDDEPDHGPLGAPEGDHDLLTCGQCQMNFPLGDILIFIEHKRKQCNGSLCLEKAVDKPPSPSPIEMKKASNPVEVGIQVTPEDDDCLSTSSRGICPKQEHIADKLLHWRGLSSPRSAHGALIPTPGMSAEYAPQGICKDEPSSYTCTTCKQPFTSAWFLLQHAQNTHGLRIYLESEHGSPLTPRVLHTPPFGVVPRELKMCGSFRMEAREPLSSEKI

B1: BCL11A-L (long isoform of BCL11A), wild-type, Q9H165-2 p.His66Gln (protein)
chain: MSRRKQGKPQHLSKREFSPEPLEAILTDDEPDHGPLGAPEGDHDLLTCGQCQMNFPLGDILIFIEQKRKQCNGSLCLEKAVDKPPSPSPIEMKKASNPVEVGIQVTPEDDDCLSTSSRGICPKQEHIADKLLHWRGLSSPRSAHGALIPTPGMSAEYAPQGICKDEPSSYTCTTCKQPFTSAWFLLQHAQNTHGLRIYLESEHGSPLTPRVGIPSGLGAECPSQPPLHGIHIADNNPFNLLRIPGSVSREASGLAEGRFPPTPPLFSPPPRHHLDPHRIERLGAEEMALATHHPSAFDRVLRLNPMAMEPPAMDFSRRLRELAGNTSSPPLSPGRPSPMQRLLQPFQPGSKPPFLATPPLPPLQSAPPPSQPPVKSKSCEFCGKTFKFQSNLVVHRRSHTGEKPYKCNLCDHACTQASKLKRHMKTHMHKSSPMTVKSDDGLSTASSPEPGTSDLVGSASSALKSVVAKFKSENDPNLIPENGDEEEEEDDEEEEEEEEEEEEELTESERVDYGFGLSLEAARHHENSSRGAVVGVGDESRALPDVMQGMVLSSMQHFSEAFHQVLGEKHKRGHLAEAEGHRDTCDEDSVAGESDRIDDGTVNGRGCSPGESASGGLSKKLLLGSPSSLSPFSKRIKLEKEFDLPPAAMPNTENVYSQWLAGYAASRQLKDPFLSFGDSRQSPFASSSEHSSENGSLRFSTPPGELDGGISGRSGTGSGGSTPHISGPGPGRPSSKEGRRSDTCSSHTPIRRSTQRAQDVWQFSDGSSRALKF
B2: BCL11A-L (long isoform of BCL11A), wild-type, Q9H165-2 p.Thr47Pro (protein)
chain: MSRRKQGKPQHLSKREFSPEPLEAILTDDEPDHGPLGAPEGDHDLLPCGQCQMNFPLGDILIFIEHKRKQCNGSLCLEKAVDKPPSPSPIEMKKASNPVEVGIQVTPEDDDCLSTSSRGICPKQEHIADKLLHWRGLSSPRSAHGALIPTPGMSAEYAPQGICKDEPSSYTCTTCKQPFTSAWFLLQHAQNTHGLRIYLESEHGSPLTPRVGIPSGLGAECPSQPPLHGIHIADNNPFNLLRIPGSVSREASGLAEGRFPPTPPLFSPPPRHHLDPHRIERLGAEEMALATHHPSAFDRVLRLNPMAMEPPAMDFSRRLRELAGNTSSPPLSPGRPSPMQRLLQPFQPGSKPPFLATPPLPPLQSAPPPSQPPVKSKSCEFCGKTFKFQSNLVVHRRSHTGEKPYKCNLCDHACTQASKLKRHMKTHMHKSSPMTVKSDDGLSTASSPEPGTSDLVGSASSALKSVVAKFKSENDPNLIPENGDEEEEEDDEEEEEEEEEEEEELTESERVDYGFGLSLEAARHHENSSRGAVVGVGDESRALPDVMQGMVLSSMQHFSEAFHQVLGEKHKRGHLAEAEGHRDTCDEDSVAGESDRIDDGTVNGRGCSPGESASGGLSKKLLLGSPSSLSPFSKRIKLEKEFDLPPAAMPNTENVYSQWLAGYAASRQLKDPFLSFGDSRQSPFASSSEHSSENGSLRFSTPPGELDGGISGRSGTGSGGSTPHISGPGPGRPSSKEGRRSDTCSSHTPIRRSTQRAQDVWQFSDGSSRALKF
B3: BCL11A-L (long isoform of BCL11A), wild-type, Q9H165-2 p.Cys48Phe (protein)
chain: MSRRKQGKPQHLSKREFSPEPLEAILTDDEPDHGPLGAPEGDHDLLTFGQCQMNFPLGDILIFIEHKRKQCNGSLCLEKAVDKPPSPSPIEMKKASNPVEVGIQVTPEDDDCLSTSSRGICPKQEHIADKLLHWRGLSSPRSAHGALIPTPGMSAEYAPQGICKDEPSSYTCTTCKQPFTSAWFLLQHAQNTHGLRIYLESEHGSPLTPRVGIPSGLGAECPSQPPLHGIHIADNNPFNLLRIPGSVSREASGLAEGRFPPTPPLFSPPPRHHLDPHRIERLGAEEMALATHHPSAFDRVLRLNPMAMEPPAMDFSRRLRELAGNTSSPPLSPGRPSPMQRLLQPFQPGSKPPFLATPPLPPLQSAPPPSQPPVKSKSCEFCGKTFKFQSNLVVHRRSHTGEKPYKCNLCDHACTQASKLKRHMKTHMHKSSPMTVKSDDGLSTASSPEPGTSDLVGSASSALKSVVAKFKSENDPNLIPENGDEEEEEDDEEEEEEEEEEEEELTESERVDYGFGLSLEAARHHENSSRGAVVGVGDESRALPDVMQGMVLSSMQHFSEAFHQVLGEKHKRGHLAEAEGHRDTCDEDSVAGESDRIDDGTVNGRGCSPGESASGGLSKKLLLGSPSSLSPFSKRIKLEKEFDLPPAAMPNTENVYSQWLAGYAASRQLKDPFLSFGDSRQSPFASSSEHSSENGSLRFSTPPGELDGGISGRSGTGSGGSTPHISGPGPGRPSSKEGRRSDTCSSHTPIRRSTQRAQDVWQFSDGSSRALKF

Columns and labels:
[1] = target: T1, BCL11A-L (long isoform of BCL11A), …; assay: BRET assay; conditions: chain shown with the change; HEK293 cells; donor Renilla luciferase fusion, acceptor YFP fusion; n = 3; parent: est. 0.30; read off a plot
[2] = target: T2, BCL11A-S (short isoform of BCL11A), …; assay: BRET assay; conditions: chain shown with the change; HEK293 cells; donor Renilla luciferase fusion, acceptor YFP fusion; n = 3; parent: est. 0.36; read off a plot

| Binder | response [1] | response [2] |
| --- | --- | --- |
| B1 | 0.11 | 0.013 |
| B2 | 0.11 | 0.001 |
| B3 | 0.065 | 0.009 |
